Values joined by “and” are separate entries in the source; they are usually repeats but may differ in a detail not shown here. Equal values may be shown once.
Columns and labels:
[1] = molecular target: His6-PA: WT PA with a carboxy-terminal six histidine tag, 63-kDa form (Bacillus anthracis); assay: negative-stain electron microscopy
[2] = molecular target: Protective antigen (PA), wild type, 63-kDa portion of trypsin-nicked PA (Bacillus anthracis); assay: native MS
[3] = molecular target: Protective antigen (PA), wild type, 63-kDa portion of trypsin-nicked PA (Bacillus anthracis); assay: negative-stain electron microscopy

Sequence of Protective antigen (PA), wild type, 63-kDa portion of trypsin-nicked PA (Bacillus anthracis) (P13423 197-764 limits assumed): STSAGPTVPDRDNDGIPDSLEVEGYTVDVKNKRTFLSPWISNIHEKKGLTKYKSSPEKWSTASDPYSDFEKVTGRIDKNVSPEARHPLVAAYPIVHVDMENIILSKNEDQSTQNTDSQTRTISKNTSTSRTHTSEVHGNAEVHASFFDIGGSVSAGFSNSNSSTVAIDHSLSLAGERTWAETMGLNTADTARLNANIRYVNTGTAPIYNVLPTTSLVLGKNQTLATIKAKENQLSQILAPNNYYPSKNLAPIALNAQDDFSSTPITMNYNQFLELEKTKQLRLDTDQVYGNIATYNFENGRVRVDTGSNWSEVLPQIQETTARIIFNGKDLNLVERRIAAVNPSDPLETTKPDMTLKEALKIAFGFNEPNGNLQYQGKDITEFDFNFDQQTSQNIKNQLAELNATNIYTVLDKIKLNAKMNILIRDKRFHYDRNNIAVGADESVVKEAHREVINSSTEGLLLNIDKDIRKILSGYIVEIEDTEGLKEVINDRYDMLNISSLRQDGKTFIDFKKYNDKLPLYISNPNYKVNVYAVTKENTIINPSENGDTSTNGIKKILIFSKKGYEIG

His6-PA: WT PA with a carboxy-terminal six histidine tag, 63-kDa form (domain or fragment)
percent of oligomers that are heptamers [1]: 74%
percent of oligomers that are octamers [1]: 26%

LFN, amino-terminal domain of lethal factor (LF residues 1-263) (domain or fragment)
stoichiometry N (LFN per PA heptamer) [2]: 2
stoichiometry N (LFN per PA tetramer) [2]: 2

Protective antigen (PA), wild type, 63-kDa portion of trypsin-nicked PA (domain or fragment)
stoichiometry N [3]: 7 and 8
